Measurements taken from US20080176814, “DNA-BASED APTAMERS FOR HUMAN CATHEPSIN G” (GENTIUM SPA, published 2008).
Like-named read-outs stand apart in the source and are kept apart here.

B1: cmpCG51 (ssDNA)
DNA: ACACGAATACCCTCTGTGCTCAGCGTAACACCCAAGCGTATACCCACATATCACACGTTG
modifications: [NONE]

What was measured:
[1] = molecular target: T1, Cathepsin G (Homo sapiens) (UniProt P08311); conditions: affinity chromatography; same buffer
T1 sequence: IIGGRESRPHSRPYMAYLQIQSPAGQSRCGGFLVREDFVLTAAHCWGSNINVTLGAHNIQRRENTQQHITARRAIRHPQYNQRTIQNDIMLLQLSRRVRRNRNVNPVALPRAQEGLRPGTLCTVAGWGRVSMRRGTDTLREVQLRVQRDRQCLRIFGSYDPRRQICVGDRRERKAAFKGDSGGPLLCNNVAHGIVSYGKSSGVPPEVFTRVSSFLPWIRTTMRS

[2] = molecular target: T1, Cathepsin G (Homo sapiens); conditions: affinity chromatography; same buffer; remark: listed apart in the source
[3] = molecular target: T1, Cathepsin G (Homo sapiens); assay: SPR
[4] = molecular target: T1, Cathepsin G (Homo sapiens); assay: SELEX; conditions: cycle 9 yield (0.4% at cycle 1); 30 mM Tris pH 7.5, 150 mM NaCl, 5 mM KCl, 5 mM MgCl2
Cathepsin G [5] = molecular target: T2, Cathepsin G (Homo sapiens, UniProt P08311 P08311:21-244); conditions: affinity chromatography; G-quartet control
T2 sequence: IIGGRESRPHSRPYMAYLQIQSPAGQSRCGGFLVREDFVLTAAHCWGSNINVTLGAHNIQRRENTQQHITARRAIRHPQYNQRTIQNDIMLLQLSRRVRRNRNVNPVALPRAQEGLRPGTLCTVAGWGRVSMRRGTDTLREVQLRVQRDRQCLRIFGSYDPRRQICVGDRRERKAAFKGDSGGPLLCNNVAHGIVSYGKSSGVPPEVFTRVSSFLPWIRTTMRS

Cathepsin G [6] = molecular target: T2, Cathepsin G; assay: affinity chromatography; same buffer; conditions: tags: Europa Bioproducts or Calbiochem; from human neutrophils (SPR, amine-coupled to CM5 chip)
Procedure: The affinity of the oligonucleotides was determined by affinity chromatography as performed in the selection. Different aliquots of each oligonucleotide were previously incubated with 15 μg of Cathepsin G in ice. The solution was then loaded in the min-chromatography column used for the selection and washed with 15 volumes of buffer IB. After one hour incubation, it was washed with six volumes of buffer EB. Fractions of the same volumes were collected and counted.
We evaluated the oligonucleotide binding to cathepsin G by affinity chromatography in analogy with the selection method. The affinity of the aptamer CG51 was firstly compared with AC and GT oligonucleotides of the same length that, as mentioned, are clearly unable to fold into any structure characterised by Watson-Crick base pairs or G quartets formation. The complementary sequence of CG51, called cmpCG51, was included as a control.

[7] = relative potency vs GT 100, 25 C

| Molecule | Kd [2] [nM] | binding signal [3, 7] | also measured |
| --- | --- | --- | --- |
| AC [(AC)30] | – | – | Kd [1]: 0.8 nM |
| AC [(AC)60] | 1.2 | – | – |
| AC [AC 40] | – | 0.0047 | – |
| AC [AC 80] | – | 0.017 | – |
| CGTACGGAATTCGCTAGCNNNNNNNNNNNNNNNNNNNNNNNNNNNNNNNNNNNNNNNNNNNNNNNNNNNNNNNNNNNNGGATCCGAGCTCCACGTG [cycle 9 selected pool] | – | – | binding signal [4]: 42% |
| GT [(GT)10 / GT 20] | 2 | – | – |
| GT [(GT)20 / GT 40] | 1.5 | 0.016 | – |
| GT [(GT)30 / GT 60] | – | 0.144 | Kd [1]: 1 nM |
| GT [(GT)40 / GT 80] | 1.2 | 0.32 | – |
| GT [GT 30] | – | 0.002 | – |
| GT [GT 100] | – | – | binding signal ([3]; relative potency, reference standard, HBS-EP pH 7.4, 25 C): 1 |
| THR thrombin aptamer | – | – | Kd (Cathepsin G [5]): 4 nM |
| B1 | – | – | Kd (Cathepsin G [6]): 0.6 nM |
